In patent US20160031946A1:

Target: OVA257-264 (SIINFEKL) presented by H-2Kb on dendritic cells (chicken; mouse)
Test: cell-based or functional assay

“OT-1 T cell receptor (TCR of OT-1 TCR transgenic mice, specific for the OVA257-264 epitope)” showed a proliferating CD8+ T cells (CFSE dilution), BMDCs loaded with ZEBRA-OVA257-264 after maturation of 70%, a proliferating CD8+ T cells (CFSE dilution), BMDCs loaded with ZEBRA-OVA257-264 before maturation of 69% and a proliferating CD8+ T cells (CFSE dilution, 5 days), DCs loaded with ZEBRA-OVA257-264 of 81%. For the same substance, the proliferating CD8+ T cells (CFSE dilution, 5 days), DCs pulsed with 10 uM Ova peptide (positive control) was 93%.
